Results: patent US20240368668A1, “SUBSTRATES AND BIOMARKERS OF ADAMTS7” (The Broad Institute, Inc., priority 2021, published 2024)
Square brackets hold non-standard residues; d marks the D form. Ends that are not written are not given here. Met(O) = CS(=O)CC[C@H](N)C(=O)O

Biological target: T1, mouse ADAMTS7 (Mus musculus, UniProt Q68SA9)
T1 construct: Full-length mouse Adamts7 1-1857 (Uniprot Q68SA9, WT or E373Q catalytic mutant); expressed in transfected cells; host or cells: Human Coronary Artery Smooth Muscle Cells (HCA-SMC, Lonza), adenovirus 50 MOI
T1 sequence (Q68SA9 221-1657): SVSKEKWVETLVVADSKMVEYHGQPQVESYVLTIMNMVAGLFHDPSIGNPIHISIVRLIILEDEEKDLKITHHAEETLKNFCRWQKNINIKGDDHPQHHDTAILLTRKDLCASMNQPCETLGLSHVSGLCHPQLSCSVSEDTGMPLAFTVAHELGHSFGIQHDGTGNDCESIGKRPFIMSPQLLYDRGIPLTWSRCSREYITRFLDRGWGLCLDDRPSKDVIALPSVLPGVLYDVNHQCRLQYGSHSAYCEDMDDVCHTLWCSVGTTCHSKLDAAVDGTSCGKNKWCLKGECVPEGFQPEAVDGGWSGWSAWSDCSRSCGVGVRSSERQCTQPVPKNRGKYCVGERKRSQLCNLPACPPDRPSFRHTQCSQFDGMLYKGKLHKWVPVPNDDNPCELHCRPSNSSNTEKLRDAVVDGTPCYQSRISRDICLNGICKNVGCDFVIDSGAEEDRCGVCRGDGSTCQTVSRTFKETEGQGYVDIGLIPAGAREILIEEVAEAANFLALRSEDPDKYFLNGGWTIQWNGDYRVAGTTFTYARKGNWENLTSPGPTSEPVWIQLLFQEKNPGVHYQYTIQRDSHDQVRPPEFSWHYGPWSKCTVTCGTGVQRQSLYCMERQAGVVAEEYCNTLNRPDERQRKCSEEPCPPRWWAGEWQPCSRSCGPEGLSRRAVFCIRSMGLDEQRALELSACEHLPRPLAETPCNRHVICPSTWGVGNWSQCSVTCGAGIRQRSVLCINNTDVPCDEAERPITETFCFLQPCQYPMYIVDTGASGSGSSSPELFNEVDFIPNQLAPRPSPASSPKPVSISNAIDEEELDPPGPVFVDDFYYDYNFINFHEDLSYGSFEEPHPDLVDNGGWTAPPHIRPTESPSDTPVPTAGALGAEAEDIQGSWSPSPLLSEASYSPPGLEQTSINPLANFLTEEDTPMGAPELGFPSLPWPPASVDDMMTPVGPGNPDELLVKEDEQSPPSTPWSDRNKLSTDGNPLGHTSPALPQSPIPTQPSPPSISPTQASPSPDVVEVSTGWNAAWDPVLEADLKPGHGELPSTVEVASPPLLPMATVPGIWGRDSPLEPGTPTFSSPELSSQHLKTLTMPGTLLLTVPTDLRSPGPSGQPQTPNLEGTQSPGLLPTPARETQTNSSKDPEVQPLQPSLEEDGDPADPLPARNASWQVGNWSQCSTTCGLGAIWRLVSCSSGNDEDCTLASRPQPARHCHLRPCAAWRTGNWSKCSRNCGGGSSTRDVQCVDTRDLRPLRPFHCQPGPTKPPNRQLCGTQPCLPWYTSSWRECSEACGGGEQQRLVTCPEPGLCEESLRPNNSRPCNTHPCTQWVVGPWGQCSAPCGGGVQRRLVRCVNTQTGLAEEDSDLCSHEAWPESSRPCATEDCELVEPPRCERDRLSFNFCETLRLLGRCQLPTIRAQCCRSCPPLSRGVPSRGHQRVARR
Test: TMT10 TAILS N-terminomics, HUVEC experiment (process replicates, trypsin/AspN digest)
Format: cell-based, human
Settings: HUVEC TAILS HC; log fold change of N-terminal peptide, Ad-mADAMTS7 WT over Luc
Summary of the method: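 Full-length mouse ADAMTS7 (WT or E373Q mutant, C-terminal 3xFLAG) or luciferase was transduced via adenovirus, 50 MOI, into HCA-SMC (SMC1, SMC2) or HUVEC. SMC1: pooled media, technical triplicates 400 ug; SMC2: process triplicates 300 ug; HUVEC: process triplicates 200 ug, bFGF2 10 ng/ml.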

| Substance | logFC.mWT.over.Luc |
| --- | --- |
| ASMT_321 (LSSAGFR; listed as Homo sapiens) | 2.18 |
| BICD1_280 (NNDDKMNGHIHGPLVKLNGDYR; listed as Homo sapiens) | 1.23 |
| CLU_267 (FQHPPTEFIR; listed as Homo sapiens) | 1.56 |
| CTGF_173 (TVVGPALAAYR; listed as Homo sapiens) | 2.94 |
| MCFD2_55 (HLEGVINKPEA; listed as Homo sapiens) | 1.13 |
| PTBP1_376 (AAAAAGR; listed as Homo sapiens) | 1.11 |
| THBS1_630 (FGQGVEHATANK; listed as Homo sapiens) | 2.27 |
| UQCRH_76 (HGSPNNSERAMRAVGE[Met(O)]CKGPGAAR; listed as Homo sapiens) | 1.39 |

Results, then the substance that gave them:

| logFC.mWT.over.Luc | Substance |
| --- | --- |
| 2.13 | CTGF_174 (VVGPALAAYR; listed as Homo sapiens) |
| 1.40 | FN1_1624 (LVQTAVTTIPAPT; listed as Homo sapiens) |
| 2.86 | FN1_1743 (WESPQGQVSR; listed as Homo sapiens) |
| 4.83 | LTBP2_129 (QQQPAPR; listed as Homo sapiens) |
| 2.90 | LTBP2_253 (GEGTLAR; listed as Homo sapiens) |
| 1.82 | LTBP3_164 (LSTGALPPLAPEG; listed as Homo sapiens) |
| 2.41 | LTBP3_205 (HAAFLVPLGPGQISA; listed as Homo sapiens) |
| 2.72 | LTBP3_221 (VQAPPPVVNVR; listed as Homo sapiens) |
| 2.38 | PSAP_301 (LVEPIKKH; listed as Homo sapiens) |
| 2.11 | PZP_578 (HAHLQVAAAPQSLCALR; listed as Homo sapiens) |
| 1.20 | ZYX_244 (PVSLANTQPR; listed as Homo sapiens) |
